According to the supplement of paper PMC5998384:

How the values were obtained:
[1] = system: HeLa Kyoto; test: solubility in G1/S (NP-40 vs SDS abundance) (log2 ratio); higher = more soluble; details: cell cycle stage: G1/S
[2] = system: HeLa Kyoto; test: melting temperature (median over replicates), in situ; higher = more thermally stable
[3] = system: HeLa Kyoto; test: solubility change mitosis vs G1/S (difference of NP-40 vs SDS log2 ratios) (log2 ratio difference); higher = more soluble in mitosis
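Wherever melting temperature (median over replicates), in situ is given: HeLa Kyoto cells synchronized by double thymidine or nocodazole block, proteins quantified by TMT10plex mass spectrometry, three independent biological replicates.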
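Wherever solubility change mitosis vs G1/S (difference of NP-40 vs SDS log2 ratios) is given: synchronized HeLa Kyoto cells (double thymidine block for G1/S, nocodazole release for mitosis), protein amounts in NP-40 versus SDS lysates quantified by mass spectrometry, three biological replicates.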
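Wherever solubility in G1/S (NP-40 vs SDS abundance) is given: HeLa Kyoto cells arrested at G1/S by double thymidine block, proteins quantified by TMT10plex mass spectrometry in mild NP-40 versus SDS extracts, three biological replicates.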

Row | Sequence | solubility in G1/S (log2) [1] | melting temperature ([2]; cell cycle stage: G1/S) | solubility change mitosis (log2) [3] | melting temperature ([2]; cell cycle stage: mitosis)
1 | MSDCYTELEKAVIVLVENFYKYVSKYSLVKNKISKSSFREMLQKELNHMLSDTGNRKAADKLIQNLDANHDGRISFDEYWTLIGGITGPIAKLIHEQEQQSSS [S100A16] | -0.172 | 51.3 °C | 0.301 | 
2 | MSDESASGSDPDLDPDVELEDAEEEEEEEEVAVEECDRDDEEDLLDDPSLEGMCGTEHAQLGEDGQQPPRCTSTTSSQSEPSEQLRRHQGKNLASEDPKKKRAQKPSHMRRNIRKLLREDQLEPVTKAAQQEELERRKRLEQQRKDYAAPIPTVPLEFLPEEIALRASDGPQLPPRVLAQEVICLDSSSGSEDEKSSRDEVIELSSGEEDTLHIVDSSESVSEDDEEEEKGGTHVNDVLNQRDALGRVLVNLNHPPEEENVFLAPQLARAVKPHQIGGIRFLYDNLVESLERFKTSSGFGCILAHSMGLGKTLQVISFIDVLFRHTPAKTVLAIVPVNTLQNWLAEFNMWLPPPEALPADNKPEEVQPRFFKVHILNDEHKTMASRAKVMADWVSEGGVLLMGYEMYRLLTLKKSFATGRPKKTKKRSHPVIIDLDEEDRQQEFRREFEKALCRPGPDVVICDEGHRIKNCQASTSQALKNIRSRRRVVLTGYPLQNNLIEYWCMVDFVRPDFLGTRQEFSNMFERPILNGQCIDSTPQDVRLMRYRSHVLHSLLEGFVQRRGHTVLKIHLPAKEENVILVRLSKIQRDLYTQFMDRFRDCGSSGWLGLNPLKAFCVCCKIWNHPDVLYEALQKESLANEQDLDVEELGSAGTSARCPPQGTKGKGEDSTLASSMGEATNSKFLQGVGFNPFQERGNNIVTYEWAKDLLTNYQTGVLENSPKMVLLFHLIEESVKLGDKILVFSQSLSTLALIEEFLGKREVPCPPGTEGQGAQKWVRNISYFRLDGSTPAFERERLINQFNDPSNLTTWLFLLSTRAGCLGVNLIGANRVVVFDASWNPCHDAQAVCRVYRYGQKKPCYIYRLVADYTLEKKIYDRQISKQGMSDRVVDDLNPMLNFTRKEVENLLHFVEKEPAPQVSLNVKGIKESVLQLACLKYPHLITKEPFEHESLLLNRKDHKLTKAEKKAAKKSYEEDKRTSVPYTRPSYAQYYPASDQSLTSIPAFSQRNWQPTLKGDEKPVASVRPVQSTPIPMMPRHVPLGGSVSSASSTNPSMNFPINYLQRAGVLVQKVVTTTDIVIPGLNSSTDVQARINAGESIHIIRGTKGTYIRTSDGRIFAVRATGKPKVPEDGRMAASGSQGPSCESTSNGRHSASSPKAPDPEGLARPVSPDSPEIISELQQYADVAAARESRQSSPSTNAALPGPPAQLMDSSAVPGTALGTEPRLGGHCLNSSLLVTGQPCGDRHPVLDLRGHKRKLATPPAAQESSRRRSRKGHLPAPVQPYEHGYPVSGGFAMPPVSLNHNLTTPFTSQAGENSLFMGSTPSYYQLSNLLADARLVFPVTTDPLVPAGPVSSSSTATSVTASNPSFMLNPSVPGILPSYSLPFSQPLLSEPRMFAPFPSPVLPSNLSRGMSIYPGYMSPHAGYPAGGLLRSQVPPFDSHEVAEVGFSSNDDEDKDDDVIEVTGK [RAD54L2] | -0.0448 |  | -0.143 | 49.7 °C
3 | MSGAGEALAPGPVGPQRVAEAGGGQLGSTAQGKCDKDNTEKDITQATNSHFTHGEMQDQSIWGNPSDGELIRTQPQRLPQLQTSAQVPSGEEIGKIKNGHTGLSNGNGIHHGAKHGSADNRKLSAPVSQKMHRKIQSSLSVNSDISKKSKVNAVFSQKTGSSPEDCCVHCILACLFCEFLTLCNIVLGQASCGICTSEACCCCCGDEMGDDCNCPCDMDCGIMDACCESSDCLEICMECCGICFPS [MDFIC] | -0.698 | 57.2 °C | 0.671 | 55.7 °C
4 | MSGLDGVKRTTPLQTHSIIISDQVPSDQDAHQYLRLRDQSEATQVMAEPGEGGSETVALPPPPPSEEGGVPQDAAGRGGTPQIRVVGGRGHVAIKAGQEEGQPPAEGLAAASVVMAADRSLKKGVQGGEKALEICGAQRSASELTAGAEAEAEEVKTGKCATVSAAVAERESAEVVKEGLAEKEVMEEQMEVEEQPPEGEEIEVAEEDRLEEEAREEEGPWPLHEALRMDPLEAIQLELDTVNAQADRAFQQLEHKFGRMRRHYLERRNYIIQNIPGFWMTAFRNHPQLSAMIRGQDAEMLRYITNLEVKELRHPRTGCKFKFFFRRNPYFRNKLIVKEYEVRSSGRVVSLSTPIIWRRGHEPQSFIRRNQDLICSFFTWFSDHSLPESDKIAEIIKEDLWPNPLQYYLLREGVRRARRRPLREPVEIPRPFGFQSG [TSPYL1] | -0.443 | 51.2 °C | 0.141 | 49.9 °C
5 | MSLQSRLSGRLAQLRAAGQLLVPPRPRPGHLAGATRTRSSTCGPPAFLGVFGRRARTSAGVGAWGAAAVGRTAGVRTWAPLAMAAKVDLSTSTDWKEAKSFLKGLSDKQREEHYFCKDFVRLKKIPTWKEMAKGVAVKVEEPRYKKDKQLNEKISLLRSDITKLEVDAIVNAANSSLLGGGGVDGCIHRAAGPLLTDECRTLQSCKTGKAKITGGYRLPAKYVIHTVGPIAYGEPSASQAAELRSCYLSSLDLLLEHRLRSVAFPCISTGVFGYPCEAAAEIVLATLREWLEQHKDKVDRLIICVFLEKDEDIYRSRLPHYFPVA [MACROD1] | 0.246 | 50.6 °C | -0.147 | 51.1 °C
6 | MSLVDLGKKLLEAARAGQDDEVRILMANGAPFTTDWLGTSPLHLAAQYGHYSTTEVLLRAGVSRDARTKVDRTPLHMAASEGHASIVEVLLKHGADVNAKDMLKMTALHWATEHNHQEVVELLIKYGADVHTQSKFCKTAFDISIDNGNEDLAEILQIAMQNQINTNPESPDTVTIHAATPQFIIGPGGVVNLTGLVSSENSSKATDETGVSAVQFGNSSTSVLATLAALAEASAPLSNSSETPVVATEEVVTAESVDGAIQQVVSSGGQQVITIVTDGIQLGNLHSIPTSGIGQPIIVTMPDGQQVLTVPATDIAEETVISEEPPAKRQCIEIIENRVESAEIEEREALQKQLDEANREAQKYRQQLLKKEQEAEAYRQKLEAMTRLQTNKEAV [GABPB1] | 0.111 | 46.9 °C | -0.139 | 49.7 °C
7 | MSQSRHRAEAPPLEREDSGTFSLGKMITAKPGKTPIQVLHEYGMKTKNIPVYECERSDVQIHVPTFTFRVTVGDITCTGEGTSKKLAKHRAAEAAINILKANASICFAVPDPLMPDPSKQPKNQLNPIGSLQELAIHHGWRLPEYTLSQEGGPAHKREYTTICRLESFMETGKGASKKQAKRNAAEKFLAKFSNISPENHISLTNVVGHSLGCTWHSLRNSPGEKINLLKRSLLSIPNTDYIQLLSEIAKEQGFNITYLDIDELSANGQYQCLAELSTSPITVCHGSGISCGNAQSDAAHNALQYLKIIAERK [PRKRA] | 0.0756 | 50.1 °C | 0.0942 | 50 °C
8 | MSRKQNQKDSSGFIFDLQSNTVLAQGGAFENMKEKINAVRAIVPNKSNNEIILVLQHFDNCVDKTVQAFMEGSASEVLKEWTVTGKKKNKKKKNKPKPAAEPSNGIPDSSKSVSIQEEQSAPSSEKGGMNGYHVNGAINDTESVDSLSEGLETLSIDARELEDPESAMLDTLDRTGSMLQNGVSDFETKSLTMHSIHNSQQPRNAAKSLSRPTTETQFSNMGMEDVPLATSKKLSSNIEKSVKDLQRCTVSLARYRVVVKEEMDASIKKMKQAFAELESCLMDREVALLAEMDKVKAEAMEILLSRQKKAELLKKMTHVAVQMSEQQLVELRADIKHFVSERKYDEDLGRVARFTCDVETLKKSIDSFGQVSHPKNSYSTRSRCSSVTSVSLSSPSDASAASSSTCASPPSLTSANKKNFAPGETPAAIANSSGQPYQPLREVLPGNRRGGQGYRPQGQKSNDPMNQGRHDSMGRYRNSSWYSSGSRYQSAPSQAPGNTIERGQTHSAGTNGTGVSMEPSPPTPSFKKGLPQRKPRTSQTEAVNS [SPATS2] | -1.01 | 52.2 °C | 0.928 | 51.5 °C
9 | MSTGFSFGSGTLGSTTVAAGGTSTGGVFSFGTGASSNPSVGLNFGNLGSTSTPATTSAPSSGFGTGLFGSKPATGFTLGGTNTGIATTITTGLTLGTPATTSAATTGFSLGFNKPAASATPFALPITSTSASGLTLSSALTSTPAASTGFTLNNLGGTTATTTTASTGLSLGGALAGLGGSLFQSTNTGTSGLGQNALGLTLGTTAATSTAGNEGLGGIDFSSSSDKKSDKTGTRPEDSKALKDENLPPVICQDVENLQKFVKEQKQVQEEISRMSSKAMLKVQEDIKALKQLLSLAANGIQRNTLNIDKLKIETAQELKNAEIALRTQKTPPGLQHEYAAPADYFRILVQQFEVQLQQYRQQIEELENHLATQANNSHITPQDLSMAMQKIYQTFVALAAQLQSIHENVKVLKEQYLGYRKMFLGDAVDVFETRRAEAKKWQNTPRVTTGPTPFSTMPNAAAVAMAATLTQQQQPATGPQPSLGVSFGTPFGSGIGTGLQSSGLGSSNLGGFGTSSGFGCSTTGASTFGFGTTNKPSGSLSAGFGSSSTSGFNFSNPGITASAGLTFGVSNPASAGFGTGGQLLQLKKPPAGNKRGKR [NUP58] | 0.542 | 54.1 °C | 0.234 | 52.7 °C
10 | MSTGPTAATGSNRRLQQTQNQVDEVVDIMRVNVDKVLERDQKLSELDDRADALQAGASQFETSAAKLKRKYWWKNCKMWAIGITVLVIFIIIIIVWVVSS [VAMP3] | 0.0764 |  | -0.16 | 54.7 °C
11 | MTDRYTIHSQLEHLQSKYIGTGHADTTKWEWLVNQHRDSYCSYMGHFDLLNYFAIAENESKARVRFNLMEKMLQPCGPPADKPEEN [SF3B5] | -0.73 | 52.7 °C | 0.221 | 51.1 °C
12 | MTELAGASSSCCHRPAGRGAMQSVLHHFQRLRGREGGSHFINTSSPRGEAKMSITSDEVNFLVYRYLQESGFSHSAFTFGIESHISQSNINGTLVPPAALISILQKGLQYVEAEISINEDGTVFDGRPIESLSLIDAVMPDVVQTRQQAFREKLAQQQASAAAAAAAATAAATAATTTSAGVSHQNPSKNREATVNGEENRAHSVNNHAKPMEIDGEVEIPSSKATVLRGHESEVFICAWNPVSDLLASGSGDSTARIWNLNENSNGGSTQLVLRHCIREGGHDVPSNKDVTSLDWNTNGTLLATGSYDGFARIWTEDGNLASTLGQHKGPIFALKWNRKGNYILSAGVDKTTIIWDAHTGEAKQQFPFHSAPALDVDWQNNTTFASCSTDMCIHVCRLGCDRPVKTFQGHTNEVNAIKWDPSGMLLASCSDDMTLKIWSMKQEVCIHDLQAHNKEIYTIKWSPTGPATSNPNSNIMLASASFDSTVRLWDIERGVCTHTLTKHQEPVYSVAFSPDGKYLASGSFDKCVHIWNTQSGNLVHSYRGTGGIFEVCWNARGDKVGASASDGSVCVLDLRK [TBL1X] | -0.043 |  | -0.0781 | 52.5 °C
13 | MTGGRFDFDDGGTYCGGWEEGKAHGHGICTGPKGQGEYSGSWSHGFEVVGGYTWPSGNTYQGYWAQGKRHGLGVETKGKWMYRGEWSHGFKGRYGVRQSLCTPARYEGTWSNGLQDGYGVETYGDGGTYQGQWAGGMRHGYGVRQSVPYGMATVIRSPLRTSLASLRSEQSNGSVLHDAAAAADSPAGTRGGFVLNFHADAELAGKKKGGLFRRGSLLGSMKLRKSESKSSISSKRSSVRSDAAMSRISSSDANSTISFGDVDCDFCPVEDHVDATTTETYMGEWKNDKRNGFGVSERSNGMKYEGEWANNKRHGYGCTVFPDGSKEEGKYKNNILVRGIRKQLIPIRHTKTREKVDRAIEGAQRAAAMARTKVEIANSRTAHARAKADAADQAALAARQECDIARAVARELSPDFYQPGPDYVKQRFQEGVDAKENPEEKVPEKPPTPKESPHFYRKGTTPPRSPEASPKHSHSPASSPKPLKKQNPSSGARLNQDKRSVADEQVTAIVNKPLMSKAPTKEAGAVVPQSKYSGRHHIPNPSNGELHSQYHGYYVKLNAPQHPPVDVEDGDGSSQSSSALVHKPSANKWSPSKSVTKPVAKESKAEPKAKKSELAIPKNPASNDSCPALEKEANSGPNSIMIVLVMLLNIGLAILFVHFLT [JPH1] | -0.419 |  | 0.108 | 51.7 °C
